{
  "source": "patent US20220332804A1",
  "about": "(CSL INNOVATION, published 2022)",
  "binders": {"B1": {"name": "RF16-242 (antibody, human IgG4 S228P, lambda, V domains shown)", "VH": "EVQLLQSGAEVKKPGESLKISCKGSGYSFTSYWIGWVRQMPGKGLEWMGIIYPGDSDTRYSPSFQGQVTISADKSISTAYLQWSSLKASDTAMYYCARRGHYGDYFDYWGQGTLVTVSS", "VL": "SYELTQPPSVSVSPGQTARITCSGDALPKKYAYWYHQKSGQAPVLVIYEDRRRPSEIPERFSGSSSGTMATLTITGAQVEDEGVYFCYSRDRAGNQRVFGGGTQLTVLG", "notes": "pH-dependent anti-C2 antibody from a phage display library"}},
  "assay_in_all_cases": "SPR, antibody captured, C2 as analyte;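 further: biacore at 37 °C, anti-C2 mAbs held by immobilised goat anti-human IgG, C2 alanine or serine mutants injected, double-referenced sensorgrams fitted to a 1:1 kinetic or steady-state model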",
  "key": {"human C2 N325A": {"target": "T1, human C2 N325A (human, UniProt P06681 21-752)", "T1 sequence": "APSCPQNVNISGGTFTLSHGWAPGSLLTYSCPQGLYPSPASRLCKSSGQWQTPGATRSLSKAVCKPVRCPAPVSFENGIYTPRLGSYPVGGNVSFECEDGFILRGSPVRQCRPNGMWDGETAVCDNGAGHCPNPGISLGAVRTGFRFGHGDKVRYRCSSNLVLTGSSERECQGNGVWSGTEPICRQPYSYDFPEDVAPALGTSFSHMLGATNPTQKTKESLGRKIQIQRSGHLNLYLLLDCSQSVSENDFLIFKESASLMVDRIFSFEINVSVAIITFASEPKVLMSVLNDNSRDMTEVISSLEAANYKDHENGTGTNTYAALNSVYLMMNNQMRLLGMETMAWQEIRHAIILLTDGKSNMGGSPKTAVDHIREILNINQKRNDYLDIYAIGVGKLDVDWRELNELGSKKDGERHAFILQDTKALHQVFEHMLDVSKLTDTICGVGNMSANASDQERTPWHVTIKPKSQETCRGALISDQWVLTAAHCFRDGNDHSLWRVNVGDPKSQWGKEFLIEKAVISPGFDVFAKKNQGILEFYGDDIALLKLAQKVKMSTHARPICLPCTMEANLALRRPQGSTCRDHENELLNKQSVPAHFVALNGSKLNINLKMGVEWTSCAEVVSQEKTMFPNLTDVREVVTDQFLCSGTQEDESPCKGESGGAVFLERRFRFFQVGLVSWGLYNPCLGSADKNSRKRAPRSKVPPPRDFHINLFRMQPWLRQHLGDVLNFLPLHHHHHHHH"}, "human C2 N471A": {"target": "T2, human C2 N471A (human, UniProt P06681 21-752)", "T2 sequence": "T1 sequence with A305N, N451A"}, "human C2 G432A": {"target": "T3, human C2 G432A (human, UniProt P06681 21-752)", "T3 sequence": "T1 sequence with A305N, G412A"}, "human C2 R434A": {"target": "T4, human C2 R434A (human, UniProt P06681 21-752)", "T4 sequence": "T1 sequence with A305N, R414A"}},
  "note": "Positions count from the first letter of the chain named.",
  "data": [
    {"binder": "B1", "values": [
      {"measurement": "Kd", "setting": "human C2 N325A", "result": 39.9, "unit": "nM"},
      {"measurement": "Kd", "setting": "human C2 N471A", "result": 9.2, "unit": "nM"},
      {"measurement": "Kd", "setting": "human C2 G432A", "result": 8.8, "unit": "nM"},
      {"measurement": "Kd", "setting": "human C2 R434A", "result": 98.9, "unit": "nM"}
    ]}
  ]
}
